From patent US20040248184A1 (published 2004)

B2: rat Reg receptor (rat Reg-binding protein, rat homologue of human EXTL3/EXTR1), 919 amino acids, with N-terminal HA tag (receptor)
chain: YPYDVPDYAMTGYTMLRNGGVGNGGQTCMLRWSNRIRLTWLSFTLFIILVFFPLIAHYYLTTLDEADEAGKRIFGPRAGNELCEVKHVLDLCRIRESVSEELLQLEAKRQELNSEIAKLNLKIEACKKSIENAKQDLLQLKNVISQTEHSYKELMAQNQPKLSLPIRLLPEKDDAGLPPPKVTRGCRLHNCFDYSRCPLTSGFPVFVYDSDQFAFGSYLDPLVKQAFQATVRANVYVTENAAIACLYVVLVGEIQEPAVLQPADLEKQLHSLPHWRTDGHNHVIINLSRKSDTQNLLYNVSTGRAMVAQSTFYAAQYRAGFDLVVSPLVHAMSEPNFMEIPPQVPVKRKYLFTFQGEKIESLRSSLQEARSFEEEMEGDPPADYDDRIIATLKAVQDSKLDQVLVEFTCKNQPKPSLPTEWALCGEREDRLELLKLSTFALIITPGDPSLLISSGCATRLFEALEVGAVPVVLGEQVQLPYHDMLQWNEAALVVPKPRVTEVHFLLRSLSDSDLLAMRRQGRFLWETYFSTADSIFNTVLAMIRTRIQIPAAPIREEVAAEIPHRSGKAAGTDPNMADNGDLDLGPVETEPPYASPKYLRNFTLTVTDCYRSWNSAPGPFHLFPHTPFDPVLPSEAKFLGSGTGFRPIGGGAGGSGKEFQAALGGNVQREQFTVVMLTYEREEVLMNSLERLNGLPYLNKVVVVWNSPKLPSEDLLWPDIGVPIMVVRTEKNSLNNRFLPWNEIETEAILSIDDDAHLRHDEIMFGFRVWREARDRIVGFPGRYHAWDIPHQSWLYNSNYSCELSMVLTGAAFFHKYYAYLYSYVMPQAIRDMVDEYINCEDIAMNFLVSHITRKPPIKVTSRWTFRCPGCPQALSHDDSHFHERHKCINFFVKVYGYMPLLYTQFRVDSVLFKTRLPHDKTKCFKFI
notes: also called rEXTL3; pCI•rEXTL3
B3: rat Reg protein (Reg I) (ligand, UniProt P10758 22-165, looked up)
chain: QEAEEDLPSARITCPEGSNAYSSYCYYFMEDHLSWAEADLFCQNMNSGYLVSVLSQAEGNFLASLIKESGTTAANVWIGLHDPKNNRRWHWSSGSLFLYKSWDTGYPNNSNRGYCVSVTSNSGYKKWRDNSCDAQLSFVCKFKA
modifications: as tracer labelled with 125I using Bolton-Hunter reagent; used unlabelled as competitor
notes: mature; also called rat Reg I
B4: human REG protein (REG Iα) (ligand, UniProt P05451 23-166, looked up)
chain: QEAQTELPQARISCPEGTNAYRSYCYYFNEDRETWVDADLYCQNMNSGNLVSVLTQAEGAFVASLIKESGTDDFNVWIGLHDPKKNRRWHWSSGSLVSYKSWGIGAPSSVNPGYCVSLTSSTGFQKWKDVPCEDKFSFVCKFKN
notes: mature; also called human REG Iα; REG Ia

What was measured:
[1] = target: B3; assay: binding of 10 nM [125I] rat Reg I to transiently transfected COS-7 cells on ice for 2 h, gamma counting, with (+) or without (-) 100-fold unlabelled rat Reg I
Protocol: Specifically, first, [¹²⁵I] rat Reg I stock solution (50 ng/μl=˜3.33 μM, 2.7×10⁵ cpm/μl) was diluted to 10 nM using DMEM. In addition, a diluted solution in which non-labeled Reg I stock solution (2250 ng/μl=150 μM) was added at 100-folds the concentration of [¹²⁵I] Reg I (1 μm), was prepared.
3 ml of 2.5×10⁵ cells/ml transfected COS cells were seeded onto 6 well plates and cultured at 37° C. for 2 days. After washing with ice-cold DMEM, 3 ml DMEM containing [¹²⁵I] rat Reg I was added (10 nM, final concentration). In a competitive inhibition experiment, 100-fold amount of non-labeled Reg I coexisted. After keeping on ice for 2 hours and then washing 3 times with DMEM, 1 ml/well of [100 mM Tris-HCl (pH 7.6), 1 mM EDTA, 1% Triton X-100] was added to lyze the cells, and [¹²⁵I] radioactivity was counted by using a γ-counter.

[2] = target: B3; assay: radioligand binding of 125I rat Reg protein to CHO cells stably expressing the rat Reg receptor
Protocol: (§1) The rat Reg-binding protein (also called EXTL3/EXTR1) expression vector constructed in Example 8 or the control vector was introduced into COS-7 cells by electroporation and expressed transiently. CHO cells expressing the Reg receptor stably were isolated as described above. The cells (7.5×10⁵ cells) were washed with RPMI1640 (Roswell Park Memorial institute 1640 medium) and incubated on ice in the presence of ¹²⁵I labeled rat Reg protein (50 ng/ml, 1.5×10⁵ cpm/ml) with various concentrations of unlabeled rat Reg or human REG protein in RPMI1640 containing 1% fetal calf serum for 2 h. After washing with RPMI1640 three times, cells were solubilized by 1 ml of 100 mM Tris-HCl (pH 7.6), 1 mM EDTA and 1% Triton X-100. The radioactivity of the lysate was-determined by a γ-counter (Cobra, Packard). As a result, rat Reg binding protein expression vector-introduced-COS-7 cells bound to ¹²⁵I-labeled rat Reg protein and the binding was decreased by the addition of unlabeled Reg protein (FIG. 6).

[3] = target: B4; assay: competition binding on CHO cells stably expressing the rat Reg receptor (line RegR-#3): unlabelled human REG is varied against 125I rat Reg protein (50 ng/ml), gamma counting
Protocol: as §1

[4] = target: B2; assay: displacement of 125I rat Reg protein from CHO cells stably expressing the rat Reg receptor
Protocol: as §1

[5] = target: B2; assay: displacement of 125I rat Reg protein (competitor tracer) from CHO cells stably expressing the rat Reg receptor
Protocol: as §1

B1: rat Reg-binding protein comprising 364 amino acids (cDNA isolated in Example 5, expression vector pCI-167.1) (receptor)
chain: MTGYTMLRNGGVGNGGQTCMLRWSNRIRLTWLSFTLFIILVFFPLIAHYYLTTLDEADEAGKRIFGPRAGNELCEVKHVLDLCRIRESVSEELLQLEAKRQELNSEIAKLNLKIEACKKSIENAKQDLLQLKNVISQTEHSYKELMAQNQPKLSLPIRLLPEKDDAGLPPPKVTRGCRLHNCFDYSRCPLTSGFPVFVYDSDQFAFGSYLDPLVKQAFQATVRANVYVTENAAIACLYVVLVGEIQEPAVLQPADLEKQLHSLPHWRTDGHNHVIINLSRKSDTQNLLYNVSTGRAMVAQSTFYAAQYRAGFDLVVSPLVHAMSEPNFMEIPRVTIFSLGRGEEEQEKLGVWRGRPPPGWGAGP
notes: also called 1.6 kbp cDNA clone
- binding result [1]: binds

Binder: B2
- Kd [2]: 4.41 nM
- binding result [3]: binds

Binder: B3
- Ki [4]: 1.61 nM

Binder: B4
- Ki [5]: 7.41 nM
